Measured values as given in article PMC3679036.

Legend:
RhoA [1] = target: RhoA (UniProt Q9QUI0); experiment: anti-RhoGDI1 co-IP from cytosolic fraction; conditions: reference: unstimulated acini; sites S96
RhoA [2] = target: RhoA (UniProt Q9QUI0); experiment: anti-RhoGDI1 co-IP from acinar lysate; conditions: reference: unstimulated acini; sites S96

“RhoGDI1 (endogenous) (from UniProt Q99PT1) CCK 300 pM, 5 min” was tested, and the percent of reference (RhoA [1]) was 42%.
In the case of “RhoGDI1 (endogenous) (from UniProt Q99PT1) PMA 500 nM”, the percent of reference (RhoA [2]) is reported as 37%.
